Drawing on PMC9841416, this text covers IC50 for three substances.

The data set has as its target NTH-RNase E wild type (Escherichia coli (K12, P21513-1 in alignment)) (UniProt P21513). As to the kind of experiment: competition. The note with it: competitor of 7.5 nM BR15 quadruplex, 20 nM NTH, 25 mM bis-Tris propane pH 8.3, 100 mM KCl, 15 mM CaCl2, 0.1% (v/v) Triton X-100, 1 mM DTT, 20% (v/v) glycerol, 37 C 20 min, 1% agarose gel in 1x TBE.

For glnW-metU segment, the IC50 was 229 nM.

In turn, “glnW-tRNA (no flanking single-stranded regions)” displayed an IC50 (does not compete effectively) of over 2500 nM.

For the substance “metU-tRNA with 5' and 3' single-stranded regions”, the IC50 came out at 147 nM.

What is called IC50 is the concentration at which inhibition is half-maximal. The low end stands for inhibition by little substance, the high end for a need for much substance.
